How the values were obtained:
[1] = biological target: C1q (human) (UniProt P02745); test: cell-based or functional assay
[2] = biological target: CD20 antigen (UniProt P11836); test: flow cytometry on WIL2-S cells expressing CD20; EC50 as percentage of C2B8 reference; design: unit not given beside the values
[3] = biological target: C1q (human) (UniProt P02745); test: C1q binding ELISA, antibody coated on plate, 2 ug/ml C1q, anti-C1q-HRP detection
[4] = biological target: C1q (human) (UniProt P02745); test: C1q binding ELISA, antibody coated on plate up to 100 ug/ml, 2 ug/ml C1q

Chain of C1q (human) (P02745 23-245 limits assumed, chain 1 of 3): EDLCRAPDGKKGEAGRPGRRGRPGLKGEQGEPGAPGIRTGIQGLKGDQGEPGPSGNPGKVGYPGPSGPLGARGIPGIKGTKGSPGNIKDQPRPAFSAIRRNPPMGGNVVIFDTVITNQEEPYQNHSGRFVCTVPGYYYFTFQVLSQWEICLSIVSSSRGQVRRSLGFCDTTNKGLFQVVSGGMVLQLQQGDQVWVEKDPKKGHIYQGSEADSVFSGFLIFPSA
Chain of C1q (human) (P02746 28-253 limits assumed, chain 2 of 3, further chain): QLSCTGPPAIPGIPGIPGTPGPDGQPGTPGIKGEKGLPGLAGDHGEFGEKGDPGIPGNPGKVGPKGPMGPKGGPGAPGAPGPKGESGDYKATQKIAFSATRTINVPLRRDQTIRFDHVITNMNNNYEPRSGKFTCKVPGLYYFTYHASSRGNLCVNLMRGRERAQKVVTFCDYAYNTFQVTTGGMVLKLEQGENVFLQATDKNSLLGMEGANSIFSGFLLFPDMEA
Chain of C1q (human) (P02747 29-245 limits assumed, chain 3 of 3, further chain): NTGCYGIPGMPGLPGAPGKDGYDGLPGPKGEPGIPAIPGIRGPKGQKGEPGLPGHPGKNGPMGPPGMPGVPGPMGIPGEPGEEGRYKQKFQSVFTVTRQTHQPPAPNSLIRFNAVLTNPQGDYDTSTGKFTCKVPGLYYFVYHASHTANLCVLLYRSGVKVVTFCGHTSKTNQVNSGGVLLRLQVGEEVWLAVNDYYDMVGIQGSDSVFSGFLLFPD
Chain of CD20 antigen (P11836 whole entry): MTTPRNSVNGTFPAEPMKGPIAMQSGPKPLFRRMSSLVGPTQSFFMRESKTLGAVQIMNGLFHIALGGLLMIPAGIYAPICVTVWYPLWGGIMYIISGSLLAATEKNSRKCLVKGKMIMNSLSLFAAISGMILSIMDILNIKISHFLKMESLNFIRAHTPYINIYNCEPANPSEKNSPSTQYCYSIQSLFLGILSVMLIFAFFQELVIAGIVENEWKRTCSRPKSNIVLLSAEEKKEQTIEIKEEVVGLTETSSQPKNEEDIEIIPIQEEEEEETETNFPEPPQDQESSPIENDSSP

Row | CDC (percent activity as compared to wild type C2B8) (% of wild type) [1] | EC50 as a percentage of the wild type (% of wild type) [2] | percent decrease in binding against wild type C2B8 [3] [% decrease] | fold lower binding than wild type C2B8 (fold lower than wild type) [4] | Substance
1 | 108 | 89 | 30 | – | C2B8 mutant E318A (antibody)
2 | 108 | 102 | – | – | C2B8 mutant K320A (antibody)
3 | – | 112 | – | – | C2B8 mutant P329A (antibody)
4 | – | 103 | – | 60 | C2B8 mutant P331A (antibody)

Source: US20030166868A1
